The values below come from article PMC5499865 (Nucleic Acids Research, 2017).

The assay addresses His-MPK6 (Arabidopsis thaliana, UniProt Q39026 1-395). The assay can be described thus: pull-down.

His-MPK6, sequence (Q39026 whole entry): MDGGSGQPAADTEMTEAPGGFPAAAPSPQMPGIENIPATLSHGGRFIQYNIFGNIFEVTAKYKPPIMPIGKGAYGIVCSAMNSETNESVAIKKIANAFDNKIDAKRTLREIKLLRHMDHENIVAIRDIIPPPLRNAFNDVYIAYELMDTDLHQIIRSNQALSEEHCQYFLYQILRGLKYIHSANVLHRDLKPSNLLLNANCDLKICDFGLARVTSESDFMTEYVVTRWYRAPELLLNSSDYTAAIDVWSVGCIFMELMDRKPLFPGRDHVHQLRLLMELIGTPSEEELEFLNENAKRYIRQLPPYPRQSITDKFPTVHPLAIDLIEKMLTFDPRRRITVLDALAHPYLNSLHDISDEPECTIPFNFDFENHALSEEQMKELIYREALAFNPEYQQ

B1: GST-MYB15 (natural protein, Arabidopsis thaliana, UniProt Q9LTC4 1-285, looked up)
chain: MGRAPCCEKMGLKRGPWTPEEDQILVSFILNHGHSNWRALPKQAGLLRCGKSCRLRWMNYLKPDIKRGNFTKEEEDAIISLHQILGNRWSAIAAKLPGRTDNEIKNVWHTHLKKRLEDYQPAKPKTSNKKKGTKPKSESVITSSNSTRSESELADSSNPSGESLFSTSPSTSEVSSMTLISHDGYSNEINMDNKPGDISTIDQECVSFETFGADIDESFWKETLYSQDEHNYVSNDLEVAGLVEIQQEFQNLGSANNEMIFDSEMDFWFDVLARTGGEQDLLAGL
With B1, the binding result is on record as “binds”.
